# B1: TCRα megaTAL target site (dsDNA)
# DNA 1: AAATCCAGTGACAAGTCTGTCTGCCTATTCACCGATTTT
# DNA 2: AAAATCGGTGAATAGGCAGACAGACTTGTCACTGGATTT
# Target: T1, TCRα2.1 megaTAL (10.5 RVD) (synthetic)
# T1 chain: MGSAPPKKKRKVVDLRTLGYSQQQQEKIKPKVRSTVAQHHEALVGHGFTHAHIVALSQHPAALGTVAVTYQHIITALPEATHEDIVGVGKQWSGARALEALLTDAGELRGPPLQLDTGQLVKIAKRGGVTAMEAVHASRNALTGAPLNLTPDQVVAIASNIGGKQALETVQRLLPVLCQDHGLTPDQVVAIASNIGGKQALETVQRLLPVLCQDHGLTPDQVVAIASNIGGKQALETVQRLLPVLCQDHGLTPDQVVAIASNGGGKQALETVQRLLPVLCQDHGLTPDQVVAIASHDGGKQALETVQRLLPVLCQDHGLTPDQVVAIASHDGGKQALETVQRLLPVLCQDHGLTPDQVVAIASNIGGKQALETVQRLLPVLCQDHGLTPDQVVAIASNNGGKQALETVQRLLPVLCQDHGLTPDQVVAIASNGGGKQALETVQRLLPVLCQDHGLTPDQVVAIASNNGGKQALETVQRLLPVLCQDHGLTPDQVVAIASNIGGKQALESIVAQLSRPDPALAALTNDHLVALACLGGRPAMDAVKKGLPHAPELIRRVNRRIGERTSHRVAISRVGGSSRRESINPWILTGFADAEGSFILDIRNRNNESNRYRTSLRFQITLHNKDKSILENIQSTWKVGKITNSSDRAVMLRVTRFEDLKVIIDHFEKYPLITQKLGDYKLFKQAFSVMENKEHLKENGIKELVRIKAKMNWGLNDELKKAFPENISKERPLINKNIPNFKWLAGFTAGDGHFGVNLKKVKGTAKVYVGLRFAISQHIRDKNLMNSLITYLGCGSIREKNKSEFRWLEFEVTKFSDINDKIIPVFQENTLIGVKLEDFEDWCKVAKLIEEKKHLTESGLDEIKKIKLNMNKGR
# Assay: cell_activity; primary human T cells, CD3 knockdown
# Conditions: tags: TALE fusion
# Description: A single amino acid substitution, E178D, that increased catalytic activity in another I-OnuI variant was inserted at the active site of the TCRα2.0 megaTAL to generate the TCRα2.1 megaTAL (SEQ ID NO: 8). In vitro transcribed mRNA encoding the TCRα2.1 megaTAL (e.g., SEQ ID NO: 15) was electroporated into primary human T cells. The TCRα2.1 megaTAL increased CD3 knockdown 10-fold compared to the TCRα2.0 megaTAL. FIG. 5.
binder,measurement,value
B1,activity,10 fold vs TCRα2.0 megaTAL

# Source: patent publication US11591582, “TCRα homing endonuclease variants” (2seventy bio, Inc.)
